# Variants at the floor of the assay were thinned out.
# B1: TPR 5TU (parent)
# chain: GGAUCUUCUCGAUCUAACAAAAAAGACAAAUCUGCCACAAAGCUUGAGAGCAUCUUCGGAUGCAGAGGCGGCAGCCUUCGGUGGCGCGAUAGCGCCAACGUUCUCAACUAUGACACGCAAAACGCGUGCUCCGUUGAAUGGAGUUUAUCAUG
# Variants of: B1
# Test: polymerase ribozyme fitness, log enrichment relative to wild type (log ratio); higher = more active; in vitro selection for triplet polymerase activity
# Outline: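 PCR was used to build mutant libraries for each subunit of a heterodimeric triplet polymerase ribozyme, which were then transcribed. A single in vitro selection round, in triplicate, used a frozen incubation at −7 °C and recovered extended constructs by gel excision, streptavidin beads and RT-PCR. Fitness is the logarithm of genotype enrichment relative to wild-type enrichment, averaged over replicates with inverse-variance weights. The logarithm is base 2, and after Illumina sequencing only genotypes with ≥10 input reads and ≥1 read per output were kept.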
row,Variant,polymerase ribozyme fitness (log ratio)
1,G80A C85A A142C,-2.14
2,C79U C85U,-1.94
3,U77C G84U A106C,≤ -4.2
4,C76A C79U C125U G140U,≤ -4.2
5,C79G C95U,-3.03
6,G80A U146G U148C,-3.91
7,C76U C87A,-3.85
8,C76U C87G,-3.96
9,G80A G141A,-0.333
10,C75U G92U C93G,-1.13
11,C76A A122U,0.592
12,C76A A122G,-0.466
13,C75U U134A,-1.13
14,U77C G92C,-3.48
15,C76U,0.0494
16,C76A,-0.118
17,C79A A91G A110G,≤ -4.2
18,C79U C85G U101G,≤ -4.2
19,C79A G83U U134G,≤ -4.2
20,C75U G83A C105G G128U U134A A138U G141U,≤ -4.2
21,C76A G152A,-2.86

row,Variant,polymerase ribozyme fitness (log ratio)
1,G80A C85U G136A G143C,-1.57
2,G80U C95G C96A,≤ -4.2
3,C79G C125U A142C U148C U151G,≤ -4.2
4,C76G C96G C99G G140U U148G,≤ -4.2
5,U78G C114U C125A C149U,≤ -4.2
6,C76U C96U,0.0365
7,C76A A91U,≤ -4.2
8,C76A A91G,-3.83
9,C76A C96U G140U,-3.67
10,U77G C93U G117C,≤ -4.2
11,C76A C103U U134A,-4.15
12,G80A C132U,-0.678
13,U77G U82A A110C G136A A137U A138U,≤ -4.2
14,C79U G84A,-3.04
15,C79A G83A,-3.78
16,C79G A98U C99U G133U,≤ -4.2
17,U77C G94C,-3.48
18,C79G G128U,≤ -4.2
19,C79A C108U,-4.06
20,G81A A89C A119U C132G U135C G143C U148A,≤ -4.2
21,C76U A119G G126U U139G,-0.649

row,Variant,polymerase ribozyme fitness (log ratio)
1,C79U G84A C108A C114A C118A U139G,≤ -4.2
2,C76G G81A,≤ -4.2
3,U77C A91U U146A,≤ -4.2
4,C75U G84U U148A,≤ -4.2
5,C76U G86U,-2.16
6,C76A C99A,-4.05
7,C79A C96G,≤ -4.2
8,C79A C96A,-4.03
9,C75U C96G,0.716
10,U78A G80A U82A A142U,≤ -4.2
11,C76A C87U G92C A142G,≤ -4.2
12,C79U U90A A106U,≤ -4.2
13,C79U C108G U109G U139G U145C,≤ -4.2
14,C76A C85U G140C,-3.97
15,C79A C103G,≤ -4.2
16,C76A G84A,-0.957
17,C76A C85A A138G U145C,≤ -4.2
18,G80C C87U U102G G124C U130A,≤ -4.2
19,C79U G81U G92C U127G,≤ -4.2
20,C75U G84U,-2.45
21,G80A G81C C95G U145G,-1.72

row,Variant,polymerase ribozyme fitness (log ratio)
1,G80A U144G,1.27
2,C76G G94C,≤ -4.2
3,G80C C95U C118G,≤ -4.2
4,C76U C85A G141C U148C,-3.74
5,C76U G117A,0.649
6,C79A C103G C131A,≤ -4.2
7,G81A,-0.305
8,U77G G117U,≤ -4.2
9,G80C G83U C118A G141C,-3.94
10,C75U G80C A107U,≤ -4.2
11,C76G C87G U90A A121C A122U,≤ -4.2
12,C76A G83A,-2.85
13,G80C C93G A115C U144C,≤ -4.2
14,C75U G83U C129G U144G,≤ -4.2
15,C75U G94C A122G U145A,-3.35
16,U77G A107U U144C U145C,≤ -4.2
17,G80A A91C G94A,-4.16
18,G80C G94A,≤ -4.2
19,U77G C93A G143A U146C,≤ -4.2
20,U77C C87G A142G,≤ -4.2
21,C76A C95U A142G,-1.94
